The target of the experiment is human TRIM28 N-terminal RBCC domain (human). In words: SEC-MALS + other: SEC-SAXS + AUC.

Consider “human TRIM28 N-terminal RBCC domain (domain or fragment)”, for which the stoichiometry N stood at 3.
